We go through 94 variants from the supplement of paper PMC10567573.

To fix the notation:
B1: HSP90AB1 (parent)
chain: EADKNDKAVKDLVVLLFETALLSS
B2: BTBD1 (parent)
chain: TSAEIELPDVEPAAFLALLRFLYS
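Note: lentivirally expressed fusions sorted by FACS into six bins by GFP to DsRed ratio, PSI derived from sequencing read proportions per bin multiplied by bin number.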

In the first data set the parent is B1. Nature of the data set: protein stability index of a GFP-peptide fusion (GPS, HEK-293T) (PSI 1-6); higher = more stable. The following applies: c terminus: a fixed tail appended.
In the case of SADKNDKAVKDLVVLLFETALLSS [E1S], the protein stability index turned out to be 1.78. Still for that read-out and setting: to HADKNDKAVKDLVVLLFETALLSS [E1H] belongs 1.94; to RADKNDKAVKDLVVLLFETALLSS [E1R], 1.69; to AADKNDKAVKDLVVLLFETALLSS [E1A], 1.45. With WADKNDKAVKDLVVLLFETALLSS [E1W], the protein stability index was found to be 2.3. On the same count and under the same terms, then LADKNDKAVKDLVVLLFETALLSS [E1L], with 2.02; and MADKNDKAVKDLVVLLFETALLSS [E1M], with 2.69; and DADKNDKAVKDLVVLLFETALLSS [E1D], with 1.86. On the same count and under the same terms, then KADKNDKAVKDLVVLLFETALLSS [E1K], with 1.61. Still for that read-out and setting: then GADKNDKAVKDLVVLLFETALLSS [E1G], with 2.37; and TADKNDKAVKDLVVLLFETALLSS [E1T], with 2.58. For NADKNDKAVKDLVVLLFETALLSS [E1N], the protein stability index came out at 1.89. Still for that read-out and setting: to FADKNDKAVKDLVVLLFETALLSS [E1F] belongs 1.36; to PADKNDKAVKDLVVLLFETALLSS [E1P], 1.95; to VADKNDKAVKDLVVLLFETALLSS [E1V], 2.54. For the variant QADKNDKAVKDLVVLLFETALLSS [E1Q], the protein stability index is 1.87. As to CADKNDKAVKDLVVLLFETALLSS [E1C], the protein stability index was 1.88. On the same count and under the same terms, then IADKNDKAVKDLVVLLFETALLSS [E1I], with 2.56.

Turning to EAFKNDKAVKDLVVLLFETALLSS [D3F], the protein stability index was 3.79.

On to EARKNDKAVKDLVVLLFETALLSS [D3R], for which the protein stability index came out at 1.9. Still for that read-out and setting: to EAYKNDKAVKDLVVLLFETALLSS [D3Y] belongs 2.46; to EAMKNDKAVKDLVVLLFETALLSS [D3M], 1.25; to EAWKNDKAVKDLVVLLFETALLSS [D3W], 1.86.

For the variant EATKNDKAVKDLVVLLFETALLSS [D3T], the protein stability index worked out at 1.65. In the case of EANKNDKAVKDLVVLLFETALLSS [D3N], the protein stability index came to 2.13. The same measure, in the same setting: then EALKNDKAVKDLVVLLFETALLSS [D3L], with 1.86. Still for that read-out and setting: then EAHKNDKAVKDLVVLLFETALLSS [D3H], with 1.98; and EACKNDKAVKDLVVLLFETALLSS [D3C], with 1.4. For EAAKNDKAVKDLVVLLFETALLSS [D3A], the protein stability index was 2.57. The same measure, in the same setting: then EAIKNDKAVKDLVVLLFETALLSS [D3I], with 1.9.

Turning to EAKKNDKAVKDLVVLLFETALLSS [D3K], the protein stability index came to 1.58.

With EASKNDKAVKDLVVLLFETALLSS [D3S], the protein stability index was 2.65. The same measure, in the same setting: then EAEKNDKAVKDLVVLLFETALLSS [D3E], with 1.65; and EAQKNDKAVKDLVVLLFETALLSS [D3Q], with 1.82; and EAVKNDKAVKDLVVLLFETALLSS [D3V], with 2.02. Still for that read-out and setting: then EAGKNDKAVKDLVVLLFETALLSS [D3G], with 1.58; and EAPKNDKAVKDLVVLLFETALLSS [D3P], with 2.47; and EFDKNDKAVKDLVVLLFETALLSS [A2F], with 2.04.

Take EIDKNDKAVKDLVVLLFETALLSS [A2I]: the protein stability index came to 1.73.

On to ECDKNDKAVKDLVVLLFETALLSS [A2C], for which the protein stability index amounted to 1.74. Still for that read-out and setting: then ERDKNDKAVKDLVVLLFETALLSS [A2R], with 2.26; and EHDKNDKAVKDLVVLLFETALLSS [A2H], with 2.1; and ESDKNDKAVKDLVVLLFETALLSS [A2S], with 1.77. As to EGDKNDKAVKDLVVLLFETALLSS [A2G], the protein stability index came out at 1.33.

As for EKDKNDKAVKDLVVLLFETALLSS [A2K], the protein stability index is 1.68.

As for EPDKNDKAVKDLVVLLFETALLSS [A2P], the protein stability index worked out at 1.79. Still for that read-out and setting: to EVDKNDKAVKDLVVLLFETALLSS [A2V] belongs 2.1. With EYDKNDKAVKDLVVLLFETALLSS [A2Y], the protein stability index is 1.73.

EWDKNDKAVKDLVVLLFETALLSS [A2W]: the protein stability index came out at 1.92.

On to ENDKNDKAVKDLVVLLFETALLSS [A2N], for which the protein stability index is 2.11.

Take EDDKNDKAVKDLVVLLFETALLSS [A2D]: the protein stability index was determined as 2.04.

Regarding EQDKNDKAVKDLVVLLFETALLSS [A2Q], the protein stability index came out at 1.54. Same read-out and setting: to EMDKNDKAVKDLVVLLFETALLSS [A2M] belongs 1.67; to ETDKNDKAVKDLVVLLFETALLSS [A2T], 2.15. As for ELDKNDKAVKDLVVLLFETALLSS [A2L], the protein stability index was determined as 1.68. EADANDKAVKDLVVLLFETALLSS [K4A]: the protein stability index is 1.9. Same read-out and setting: then EADDNDKAVKDLVVLLFETALLSS [K4D], with 2.13; and EADCNDKAVKDLVVLLFETALLSS [K4C], with 1.87.

The next data set covers variants of B2. Described as above. The note with it: c terminus: a fixed tail appended.
TSAEIELPDVEPAAFLALLEFLYS [R20E]: the protein stability index stood at 1.77.

On to TSAEIELPDVEPAAFLALLYFLYS [R20Y], for which the protein stability index was found to be 2.09. Regarding TSAEIELPDVEPAAFLALLDFLYS [R20D], the protein stability index turned out to be 1.38. Take TSAEIELPDVEPAAFLALLPFLYS [R20P]: the protein stability index amounted to 2.01.

For TSAEIELPDVEPAAFLALLLFLYS [R20L], the protein stability index worked out at 3.18. Still for that read-out and setting: to TSAEIELPDVEPAAFLALLKFLYS [R20K] belongs 1.29; to TSAEIELPDVEPAAFLALLGFLYS [R20G], 2.67; to TSAEIELPDVEPAAFLALLFFLYS [R20F], 2. Regarding TSAEIELPDVEPAAFLALLMFLYS [R20M], the protein stability index came out at 2.54.

Take TSAEIELPDVEPAAFLALLWFLYS [R20W]: the protein stability index worked out at 3.4.

In the case of TSAEIELPDVEPAAFLALLTFLYS [R20T], the protein stability index amounted to 4.67. The same measure, in the same setting: then TSAEIELPDVEPAAFLALLNFLYS [R20N], with 1.71.

As to TSAEIELPDVEPAAFLALLHFLYS [R20H], the protein stability index worked out at 1.79. Take TSAEIELPDVEPAAFLALLCFLYS [R20C]: the protein stability index was found to be 1.19. Regarding TSAEIELPDVEPAAFLALLSFLYS [R20S], the protein stability index was 1.93.

Regarding TSAEIELPDVEPAAFLALLAFLYS [R20A], the protein stability index came out at 2.08. Same read-out and setting: then TSAEIELPDVEPAAFLALLQFLYS [R20Q], with 2.05; and TSAEIELPDVEPAAFLALLVFLYS [R20V], with 3.16; and TSAEIELPDVEPAAFLALPRFLYS [L19P], with 2.11.

Consider TSAEIELPDVEPAAFLALARFLYS [L19A], for which the protein stability index was determined as 1.9. On the same count and under the same terms, to TSAEIELPDVEPAAFLALHRFLYS [L19H] belongs 2.05; to TSAEIELPDVEPAAFLALDRFLYS [L19D], 3.54.

Turning to TSAEIELPDVEPAAFLALKRFLYS [L19K], the protein stability index is 2.07. Still for that read-out and setting: then TSAEIELPDVEPAAFLALWRFLYS [L19W], with 1.98; and TSAEIELPDVEPAAFLALCRFLYS [L19C], with 1.94; and TSAEIELPDVEPAAFLALFRFLYS [L19F], with 1.58. Same read-out and setting: then TSAEIELPDVEPAAFLALSRFLYS [L19S], with 1.69; and TSAEIELPDVEPAAFLALTRFLYS [L19T], with 1.76; and TSAEIELPDVEPAAFLALVRFLYS [L19V], with 1.72. The same measure, in the same setting: to TSAEIELPDVEPAAFLALRRFLYS [L19R] belongs 1.84; to TSAEIELPDVEPAAFLALGRFLYS [L19G], 1.89; to TSAEIELPDVEPAAFLALERFLYS [L19E], 2.31. For TSAEIELPDVEPAAFLALMRFLYS [L19M], the protein stability index was 2.05. Regarding TSAEIELPDVEPAAFLALIRFLYS [L19I], the protein stability index was 2.37.

For TSAEIELPDVEPAAFLALNRFLYS [L19N], the protein stability index was 1.77. Turning to TSAEIELPDVEPAAFLALQRFLYS [L19Q], the protein stability index was 1.51.
